41 sequences from the nanobody polyreactivity screen of Harvey et al. (2022) can be followed below.

The data set is described as follows: yeast display, Sf9 membrane polyspecificity reagent, FACS + sequencing; frameworks hold sequencing errors. An outline of the steps: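 Nanobodies from a synthetic yeast display library (Saccharomyces cerevisiae BJ5465), induced 36–48 hours with galactose, were stained 1 hour at 4 °C with 10% biotinylated, detergent-solubilized Sf9 membrane reagent, enriched on streptavidin microbeads, then FACS-sorted. Anti-HA (expression) and streptavidin (reagent binding) fluorescence set low and high (top ~1%) gates. Polyreactivity labels come from the gate of origin. Genes were colony-PCR amplified, MiSeq 2 × 250 sequenced and filtered by CDR length.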
Take “QVQLQESGGLVQAGGSLRLSCAASGSISGRNVMGWYRQSPGKEREFVASITDGSSNNYADSVKGRFTISRDNAKNTVYLQMNSLKPKDTAVYYCAAYAQRAKSFGYWGRGTQVTVSS”: the “polyreactivity (PSR sort gate)” value is “low polyreactivity”.

“QVQLQESGGLVQAGGSLRMSCAASGSISGRNVMGWYRQAPGKEREFVASITDGSSTNYADSVKGRFTISRDNAKNTLFLQMNSLKPKDTAVYYCAAYAQRGKSFGYWGRGTQVTVSS”: the “polyreactivity (PSR sort gate)” value is recorded as “low polyreactivity”.

In the case of “QVQLQESGGVLVQEGGSLRLSCAASGNISPQADMGWYRQATGTERELVASIGTGGTTNYADSVKGRFTISRDNAKNTVYLQMNRLKPDDTAVYYCAAVRYEYNPYDYWGQGTQVTVSS”, the “polyreactivity (PSR sort gate)” value is “low polyreactivity”.

For “QVQLQESGRRPGSAGVSPRMSCAASGNIFWVAVMCRYRQAPGKERELVASIGFGCTTYYADSVKCRFTISRDNAKITVYLQMLSLKPFDTAVYYCAAPHYDWGELDYWGQGTQVPVSS”, the “polyreactivity (PSR sort gate)” value is “low polyreactivity”.

As for “QVQLQESGVRMVQAGGSLRLSCAASGNIFLGDTMGWYRQAPGKEREFVAGIARGGNPYYADSEKGRLTISRNNANNTVYLEKISLKPEDSAVHYCSVQRSDASDYNYWGQGTQVTVIS”, the “polyreactivity (PSR sort gate)” value is “low polyreactivity”.

“QVQLQESRGGLVQAGGSLRLICAASGSISCPHVMGWYRQAPGKEREFVAAINVGANTYYADNVKGRFTISRDNAKNTVYLQKNSLKPEATAVYYCAAVYYGDIGHEYWGQGTQVTVSC”: the “polyreactivity (PSR sort gate)” value is “low polyreactivity”.

For the sequence “QVQLQESVGGLVQADGSLRLSCAASGTIFTQSYMGWYRQAPGKEREFVAGISNGTKTNYGDSVKGRFTISRDNAKNTVYLQMHRLKLEDTAVYYCAVKGFYVDVLAYWGQGTHVTVSS”, the “polyreactivity (PSR sort gate)” value is on record as “high polyreactivity”.

Consider “QVQLQESVGLVQAGGLRLSCAASGSVSYQEAMGWYRQAPAKERELVATISFGANTNYADSVKGRFTISRDNAKNTVYLQMNCLKPEDTAVYYCAAESLFDDYYGYWGQGTQVTVSS”, for which the “polyreactivity (PSR sort gate)” value is “low polyreactivity”.

Turning to “QVQLQGSGAGLVQAGGSLRLSCAPSGYILQNVPMGWNRQAPGKERELVAGIDNGTSTNYADSVNGSFTISRDNAKNTVYLQMNSLKPEDTAVYYCAAAGQADETLGYWGQGTQVTVSR”, the “polyreactivity (PSR sort gate)” value was “low polyreactivity”.

On to “QVQLQGSGGGLAQAGDSLRLSCAASGTIFSEYNNGLVSPGAGQRTRTCCRYWCWGNTYYADSAKGRFTTSRDNANNTVYLQKNSLIPEDTAVYYCAFNRPYPSRHIYRGQGTQVTVSS”, for which the “polyreactivity (PSR sort gate)” value is “high polyreactivity”.

Consider “QVQLQVSGGDLVPAGGSLRLSCAGSGTIYGLTSMAWYRQAPGKEREFVAAITDGGNANYADSVKGRFTISRDNAKNTVYLQMISLKPEDTAVYYCAVLFSDDAYYAYWGQGTQVTVSS”, for which the “polyreactivity (PSR sort gate)” value is recorded as “low polyreactivity”.

Regarding “QVQLQVSGGDLVQAGGSLRMSCAASGTIYGLTSMGWNRQAPGKEREFVAAITDGGNTNYADSVKGRFTISRDNAKNTVYLQMISLKPEDTAVFYCAVLFSDDAYYAYWGQGTQVNVSS”, the “polyreactivity (PSR sort gate)” value was “low polyreactivity”.

For the sequence “QVQLRESGAGGRQPAPELRCERQYFYWSADGLVSQPPGKEREFVAGIDRGTITNYADSVRGRFTISRDNAKNTVYLQMNSLKPEDTAVYYCNAEYRRRPKLGDEDEYWGHGTQVTVSS”, the “polyreactivity (PSR sort gate)” value is recorded as “high polyreactivity”.

In the case of “QVQLRESGCGLVQAGGNLRLSCAASGNIFDADIMGWYGQAPGKERELVASITEGGSTNYADSVRCRFTISRDNAKNTVYLQMISLKPEDTAVYYCTAIAYPDIPTYFDHDSDYFYWGQGTQVTVSS”, the “polyreactivity (PSR sort gate)” value was “high polyreactivity”.

On to “QVQLRESGCGLVQAGGNLRLSCAASGNIFDADIMGWYRQAPGKERELVASITDGGSTYYADSVRCRFTISRDNAKNTVYLQMNSLKPEDTAVYYCTAIAYPDIPTYFDHDSDYFYWGQGTQVTVSS”, for which the “polyreactivity (PSR sort gate)” value is “high polyreactivity”.

With “QVQLRESGGGLVQAGGSLRLSCAASGRIFSVYAMGWDRQAPGKERELVAAITRVGSTNYADSVKGRFTISRDNAKNTVYLQMNSLKPEDTAVYYCAARSTGYPTGRMYYWGQGTQVTVSS”, the “polyreactivity (PSR sort gate)” value is reported as “high polyreactivity”.

As for “QVQLRESGGGLVQAGGSLRLSCAASGRILYSYAMGWYRQAPGKERELVAAISWRGGPTYYADSVKGRFTISRDYAKNSVYLPMNSLKPEDTAVYYCAAEFYDLPWLYDYWGQGTQVTVSS”, the “polyreactivity (PSR sort gate)” value is “low polyreactivity”.

Consider “QVQLVASGGGLLQAGGSLRLSCAASGIIFDRYTMGWYRQAPGKERELVASISDDDGSTYYADSVKGRFTISRDNAKNTVYLQMNSLTPEDTAVYYCKALSIIFDYWGQATQVTVSS”, for which the “polyreactivity (PSR sort gate)” value is “low polyreactivity”.

In the case of “QVQLVASGGGLVHAGGSLRLSCAASGRIFTHNAMGWSRQAPGKEREMVAAITSGGRTTYADSVKGRFTISRDNAKNTVYFQMNSLKPEDTAVYYCNADTGLGSLDFDKRDYWGQGTQVTVSS”, the “polyreactivity (PSR sort gate)” value was “low polyreactivity”.

“QVQLVASGGGLVQTGGSLRLSCAASGSTCVWYTIGWYRQAPGKERELVADISRSGGSTYYADSVKGRFTISRDNAKKTIYLQKNSLKAEDTAVYYCARYGYVYNTREPPKVVTFDYSGQGTQVTVSS”: the “polyreactivity (PSR sort gate)” value is reported as “high polyreactivity”.

Take “QVQLVASRGGLVQAGGILRLSSAASGSTFPSYEMGWYRQARGKERELVAAINSGRGSNYADSVKGRFTISRDNAKNTVYLQMNCLIPDDTAVYYCGISRYDYTNTEGGYWGQGTQVTVSS”: the “polyreactivity (PSR sort gate)” value is recorded as “low polyreactivity”.

Take “QVQLVDSAGGLVQAGGILRLSCAASGFTFDAKSRGWYRQAPGTERELVDAISLSDGSTYYADSVKGRFTISRDNAKNTVYLQMNSLKPEDTAVYYCNAERFGSGLAWLLFDYWGQGTQVTVSS”: the “polyreactivity (PSR sort gate)” value is on record as “low polyreactivity”.

For the sequence “QVQLVDSAGGLVQAGGSLRLSCAASGFIFRRNAMGWYRQAPGKERELVAGINRSGTRTYYADSVKGRFTISRDNAKNTVNLQMNSLKPEDTAVYYCAALVYRPTYGYIFDYWGQGTQVTVSS”, the “polyreactivity (PSR sort gate)” value was “high polyreactivity”.

“QVQLVDSAGGLVQAGGSLRLSCAASGSIFFRYAMGGYRQAAGKERELVAAITQRTGSTYYADSVKGRFTISRDNAKITVYLQMNSLKPEDTAVYYCAAKRWRRSFTGNYWGQGTQVTVSS”: the “polyreactivity (PSR sort gate)” value is “high polyreactivity”.

In the case of “QVQLVDSAGGLVQAGGSLRLSCAASGSIINSNAMGWYRQAPGKERELVAAINWRGGSTYYADSVKGRFTISRDNAKNTVYLQMNSLKPEDTAVYYCNALRRAPRAEYYYGGQGTQVTVSS”, the “polyreactivity (PSR sort gate)” value was “high polyreactivity”.

Take “QVQLVDSAGGLVQAGGSLSLSCAASGFIFGRYAMGWYRQAPGKERELVAVITWSGGRTYYADSVKGRFTISRDNAKNTVYLQMNSLKPEDTAVYYCAADRYPYHYGYDYWGQGTQVTVSS”: the “polyreactivity (PSR sort gate)” value was “high polyreactivity”.

“QVQLVDSGGCLVQAGGSHRLSCSASGRIYPWYAMVWYRQAPGKERELVASITRNGGDTYYADSVKGRFTISRDNAKNTVYLQMNSLKPEDTAVYYCNAVRGYWFRQKDTIELGYWGQGTQVTVSS”: the “polyreactivity (PSR sort gate)” value is given as “high polyreactivity”.

For “QVQLVDSGGGFVQAGGSLRLSCAASGFIFRSYAMRWYRTAPGKERELVAAITKSGGRTYYADSVKGRFTISRDNAKNTVYLQMNSLKPEDTAVYYCAADGAYGGYDYWGQGTLVTVSS”, the “polyreactivity (PSR sort gate)” value is “low polyreactivity”.

For the sequence “QVQLVDSGGGIVQAGGSLRLRCAASGFTFDFYAMGWYRQAPGKERELVADISSSDGSTYADSVKGRFTISRDNAKNTVYLQMNSLNPEDTAVYYCAADYDNQYDFSLDDEYWGQVTQVTVSS”, the “polyreactivity (PSR sort gate)” value is “low polyreactivity”.

Consider “QVQLVDSGGGIVQAGGSLRLSCPASGITFPKYAMGWYRQAPGKERELVAAITKSSGSTYYADSVKGRFTISRDNAKNTVYLQMKSLKPEDTAVYYCAARRVNHIRSYSYVSNYGYWGQGTQVTVSS”, for which the “polyreactivity (PSR sort gate)” value is “high polyreactivity”.

In the case of “QVQLVDSGGGIVQAGGSLRVSCAASGRTFWYYTMGWYIQAPGKERELVAAITSGGSKYYSDSVKGRFTISRDNAKNTVYLQMISLNPEDTAVYYCAAYLLPAYSRISNDYWGQGTQVTVSS”, the “polyreactivity (PSR sort gate)” value is “high polyreactivity”.

For “QVQLVDSGGGKVQAGGSLRLSCAASGITFSRNAMGWYRQAPGKEMELVAAITWNGGRTYYADSVKGRFTISRDNAKNTVDLQMNSLKPEDTAVYYCAADSGTRNLASYRYYYWGQGTQGTVSS”, the “polyreactivity (PSR sort gate)” value is reported as “high polyreactivity”.

Consider “QVQLVDSGGGLFQAGGSLRLSCAASGRTFVGYSMGWYRQAPGKEMEVVATITNDDITYADSVKGRFTISRDNAMNTVYLQMNSLNPEETAVYYCNTSYSYGTAYEQYRYKALYDYWGHGTQVTVSS”, for which the “polyreactivity (PSR sort gate)” value was “low polyreactivity”.

Take “QVQLVDSGGGLGQVGGSRRVSCAASGRTFWWYPMGWYRQSPGKERELVAAISRGSTNYADSVKGRFAISRDNAKNTVYLQMNSQKPEDTAVYYCAAYVVWLYGYDYGGQGTQVTVSS”: the “polyreactivity (PSR sort gate)” value was “low polyreactivity”.

“QVQLVDSGGGLLQAGASLRLSCAASGITFYINAMGWYRQPPGKERALVAVIDSRGSSTFYADSVKGRFTISRHNAKNSVYLQMNSLKPEYTAVYYCAAEPDTYWYTYDYWGQRTQVTVSS”: the “polyreactivity (PSR sort gate)” value is listed as “low polyreactivity”.

With “QVQLVDSGGGLLQAGGILSLSCAASGSIFPYYAMGWYRQAPGKERELVAVITTVGGSTYYADSVKGRFTISRDNAKYTVYLQMNSLKPEDTAVYYCADEEDYIYFYFSMDYWGQGTQVTVSS”, the “polyreactivity (PSR sort gate)” value is recorded as “low polyreactivity”.

Take “QVQLVDSGGGLVQAGGILRLSCAASGFIFKKNAMGWYRQAHGKEREFVAAITSSGGSTYYADSVKGRFTISRDNAKNTVYLQMNSLKPEDTAVYFCARGTSWWRSRSITFTYDYWGQGTQVTVSS”: the “polyreactivity (PSR sort gate)” value was “high polyreactivity”.

“QVQLVDSGGGLVQAGGILRLSCAASGRTFTYYTMGWYRQAPGKESEMVAAITWSGGRTYYADSVKGRFTISRDNAKNTVYLQMNILKPEDTAVYYCAAYEIYYEFDSWGQGTQVTVSS”: the “polyreactivity (PSR sort gate)” value is “low polyreactivity”.

With “QVQLVDSGGGLVQAGGILRLSCAASGSTFRRYSMGWYRHAPGKQRELVAAISGRGGSTSYADSVKGRFTISRDNAKNTVYLQINSLKPEDTAVYYCAADDKYFYPGNGYWGQGTQVTVSS”, the “polyreactivity (PSR sort gate)” value is “high polyreactivity”.

Consider “QVQLVDSGGGLVQAGGILRLSCAASGSTFRYYAMGWYRQAPGKERELVAAITKNGGSTYYADSVKGRFTISRDNAKNTVYLQMNSLKPEDTAVYYCAVQFSYSGWYYVSYYYWGQGTQVTVSS”, for which the “polyreactivity (PSR sort gate)” value is “high polyreactivity”.

Consider “QVQLVDSGGGLVQAGGRLRLSCAASGFTFPSNAMGWYRKAPGKERQLVASINQRGGSTYYADSVKGRFTISRDNAKNTVYLQMNSLKPEDTAVYYCAAGPTSRRWYDYWGQGTQVTVSS”, for which the “polyreactivity (PSR sort gate)” value is recorded as “high polyreactivity”.
